Assay results as given in patent publication US20120184485A1.

Assays:
scavenger receptor CD36 [1] = assay: flow cytometry on CD36-transfected CHO cells, rAv17 at 5 µg/ml; baseline 20%
scavenger receptor CD36 [2] = assay: flow cytometry on CD36-transfected CHO cells, rAv17 at 2.5 µg/ml; baseline 20%

**Q.** What does the source list for “recombinant Acanthocheilonema viteae cystatin (rAv17)”?
**A.** fluorescence positive cells (scavenger receptor CD36 [1]): 89%; fluorescence positive cells (scavenger receptor CD36 [2]): 71%
